Assay results taken from US12448429B2, “T cell receptors specific to b-cell maturation antigen for treatment of cancer” (Dana-Farber Cancer Institute, Inc., priority 2019, dated 2025).

Legend:
[1] = molecular target: T1, HLA-A2 (Homo sapiens, UniProt P04439, D140Y/D185E/D98H/E176V/E277Q/G131W/G231S/I119V/I121R/I166T/I218V/L300P/L318F/N151K/N90K/P208A/P217A/Q86G/Q94H/R138H/R169H/T345S); assay: HLA-A2 binding affinity of BCMA peptides on T2 cells (HLA-A2 up-regulation, MFI by flow cytometry); details: for HLA-A2 binding affinity among the six native peptides: dose-dependent, Example 12; for HLA-A2 specificity (HLA-A2 binding capacity, MFI): six native BCMA peptides compared, T2 cells pulsed overnight with 0-200 μg/ml peptide, FIG. 2; for change of HLA-A2 binding affinity of heteroclitic peptide compared to its native peptide: T2 cells, FIG. 3, Example 12: n=3, p<0.05
T1 construct: endogenous in cells; host or cells: T2 cell line (human B and T cell hybrid), provided by Dr. J. Molldrem
Protocol: The listed BCMA peptides were evaluated for HLA-A2-specific binding capacity using the T2 cell line. In the assay, T2 cells were washed, resuspended in serum-free AIM-V medium to a final concentration of 1×10^6 cells/ml and transferred into wells of a 24-well tissue culture plate. The cells were pulsed with different concentrations of respective BCMA peptide (0-200 μg/ml) plus 3 μg/ml human […] (Sigma) and incubated at 37° C., 5% CO2 in humidified air. Following overnight incubation, the cells were washed, stained with mouse anti-human HLA-A2-FITC mAb for 15 minutes at 4° C., washed and analyzed using a FACSort™ flow cytometer with CellQuest™ v2.1 software (Becton Dickinson, San Jose, Calif.). […] Among the BCMA peptides evaluated, “#4. […] (FIG. 2).
(§1) The native and heteroclitic BCMA peptides were examined for HLA-A2 binding stability using the T2 cell line. T2 cells were pulsed with the respective peptide. After overnight incubation, the cells were washed to remove unbound peptide; they were evaluated for binding affinity as shown above and stability as following. The cells were incubated with 10 μg/ml Brefeldin A (Sigma) at 37° C. and 5% CO2 for 1 hour to block cell surface expression of newly synthesized HLA-A2 molecules. Peptide/HLA-A2 binding stability was evaluated at 0, 2, 4, 6 and 18 hours post-Brefeldin A treatment. Following the incubation period, the cells were harvested, washed, stained with mouse anti-human HLA-A2-FITC mAb and analyzed by flow cytometry. […] Therefore, the Heteroclitic #4 BCMA72-80 (YLMFLLRKI (SEQ ID NO: 37)) peptide was selected for further evaluation of its immunogenic potential to generate MM-specific cytotoxic T cells (CTLs).
(§2) T2 cells were pulsed overnight with various doses of peptide plus β2-microglobulin (3 μg/ml) (Sigma, St Louis, Mo.). Following overnight incubation, the cells were stained with HLA-A2-PE mAb and analyzed using a FACSCanto™ flow cytometer (BD). Peptide/HLA-A2 complex stability was measured on peptide loaded T2 cells at 0, 2, 4, 6 and 14 hours post-brefeldin A treatment by staining with HLA-A2-PE mAb and flow cytometric analysis.

[2] = molecular target: T1, HLA-A2; assay: Peptide/HLA-A2 binding stability on peptide-pulsed T2 cells after Brefeldin A treatment; details: for HLA-A2 stability (and affinity) of heteroclitic peptides: 0, 2, 4, 6 and 14 hours post-brefeldin A, compared with native peptides and HIV-Gag77-85 positive control
Protocol: as §1, §2

[3] = listed as heteroclitic BCMA72-80

HLA-A2 binding affinity among the six native peptides [1]	HLA-A2 specificity (HLA-A2 binding capacity, MFI) [1]	change of HLA-A2 binding affinity of heteroclitic peptide compared to its native peptide [1]	Sequence	also measured
		increased from their native peptide	YILWTCLGL [Heteroclitic #5 BCMA54-62]	change of HLA-A2 binding affinity of heteroclitic peptide compared to its native peptide ([1]; listed as heteroclitic hBCMA54-62): highest increase in HLA-A2 binding affinity; HLA-A2 stability (and affinity) of heteroclitic peptides [2]: further enhanced
		did not alter its HLA-A2 affinity status	YQNEYFDSL [heteroclite BCMA9-17]	

Further lines, the sequence ahead of its results:

Sequence	HLA-A2 binding affinity among the six native peptides [1]	HLA-A2 specificity (HLA-A2 binding capacity, MFI) [1]	change of HLA-A2 binding affinity of heteroclitic peptide compared to its native peptide [1]	also measured
AILWTCLGL [#5. BCMA54-62]	highest HLA-A2 binding affinity	second highest level		
VLMFLLRKI [#4. BCMA72-80]	highest HLA-A2 binding affinity	highest level of HLA-A2 specificity		
YLMFLLRKI [Heteroclitic #4 BCMA72-80]			increased from their native peptide	change of HLA-A2 binding affinity of heteroclitic peptide compared to its native peptide [1, 3]: highest increase in HLA-A2 binding affinity; HLA-A2 stability (and affinity) of heteroclitic peptides ([2]; listed as BCMA72-80 (YLMFLLRKI (SEQ ID NO: 37))): highest level of HLA-A2 affinity and stability; HLA-A2 stability (and affinity) of heteroclitic peptides [2, 3]: further enhanced; HLA-A2 binding stability compared to the native peptide ([2]; 0, 2, 4, 6 and 18 hours post-Brefeldin A, 50 ug/ml, FIG. 4): significant improvement
